Test [1] has as its target complement component C1q (Sigma/C1740-1 mg) (human) (UniProt P02745). Kind of test: ELISA, antibody coated, C1q in solution, OD 450 nm.
Test [2] deals with recombinant human LILRA1/LIR-6 (Sino Biological 17220-H08H-100) (human) (UniProt O75019). Kind of test: SPR, LILRA and LILRB family panel.
The target of test [3] is ECD-His tagged human ILT2 haplotype PE01 (human) (UniProt Q8NHL6). Kind of test: SPR, LILRA and LILRB family panel.
Test [4] has as its target recombinant human LILRA3/ILT6 (Sino Biological 13549-H08H-100) (human) (UniProt Q8N6C8). Kind of test: SPR, LILRA and LILRB family panel. On the technique in general: Surface plasmon resonance follows binding to a sensor surface in real time, without labels.
For test [5], the target named is full-length ILT2 expressed on Jurkat cells (human) (UniProt Q8NHL6). The experiment in a line: cell-based or functional assay.
Chain of full-length ILT2 expressed on Jurkat cells (human) (Q8NHL6 24-650): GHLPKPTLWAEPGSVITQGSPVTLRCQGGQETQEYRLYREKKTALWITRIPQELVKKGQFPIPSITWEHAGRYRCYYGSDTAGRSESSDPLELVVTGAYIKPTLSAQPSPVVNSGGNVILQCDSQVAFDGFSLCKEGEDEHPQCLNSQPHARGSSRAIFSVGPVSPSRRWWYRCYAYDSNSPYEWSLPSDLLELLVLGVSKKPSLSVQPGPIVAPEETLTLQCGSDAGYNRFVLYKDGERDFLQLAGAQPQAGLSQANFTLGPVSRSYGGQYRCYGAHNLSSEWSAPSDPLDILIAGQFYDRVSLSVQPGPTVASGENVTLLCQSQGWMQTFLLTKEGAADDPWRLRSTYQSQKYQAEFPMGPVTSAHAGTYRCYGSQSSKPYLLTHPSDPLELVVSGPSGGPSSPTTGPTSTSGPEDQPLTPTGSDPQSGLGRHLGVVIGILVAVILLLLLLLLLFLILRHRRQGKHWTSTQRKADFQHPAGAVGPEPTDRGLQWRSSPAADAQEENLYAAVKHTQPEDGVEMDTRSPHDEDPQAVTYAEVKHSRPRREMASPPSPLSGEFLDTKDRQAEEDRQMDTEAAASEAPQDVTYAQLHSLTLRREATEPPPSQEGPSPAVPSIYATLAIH
Test [6] concerns the target human ILT2 extracellular and transmembrane domains expressed on CHO cells (human) (UniProt Q8NHL6). Kind of test: flow cytometry, blocking of HLA-G-Fc-PE on CHO cells with high human ILT2. Background: A flow cytometer gives signals particle by particle.
For test [7] the target is unchanged. The experiment in a line: flow cytometry, CHO cells with low human ILT2.
For test [8] the target is unchanged. Kind of test: flow cytometry, CHO cells with high human ILT2.
Test [9] concerns the target complement component C1q (Sigma/C1740-1 mg) (human) (UniProt P02745). Kind of test: ELISA, antibody coated in a dilution series, C1q added at 2 µg/mL, biotinylated anti-C1q and streptavidin-HRP. Background: In an ELISA, binding on a coated surface is turned into a signal by an enzyme label.

Some results are limits rather than exact numbers.

Chain of ECD-His tagged human ILT2 haplotype PE01 (human) (Q8NHL6 24-458): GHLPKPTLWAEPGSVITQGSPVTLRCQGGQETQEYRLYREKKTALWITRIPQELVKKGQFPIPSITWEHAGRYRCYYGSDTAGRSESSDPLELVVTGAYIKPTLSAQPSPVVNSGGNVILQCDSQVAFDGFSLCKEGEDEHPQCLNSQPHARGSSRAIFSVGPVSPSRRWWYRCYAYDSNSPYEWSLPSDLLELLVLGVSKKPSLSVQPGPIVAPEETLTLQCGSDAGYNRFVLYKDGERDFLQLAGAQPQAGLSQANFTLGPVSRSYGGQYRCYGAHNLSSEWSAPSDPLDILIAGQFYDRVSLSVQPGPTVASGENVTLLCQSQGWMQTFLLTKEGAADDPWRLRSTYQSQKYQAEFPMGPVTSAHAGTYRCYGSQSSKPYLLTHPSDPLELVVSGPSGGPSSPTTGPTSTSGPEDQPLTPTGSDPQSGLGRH
Chain of human ILT2 extracellular and transmembrane domains expressed on CHO cells (human) (Q8NHL6 24-482 limits assumed): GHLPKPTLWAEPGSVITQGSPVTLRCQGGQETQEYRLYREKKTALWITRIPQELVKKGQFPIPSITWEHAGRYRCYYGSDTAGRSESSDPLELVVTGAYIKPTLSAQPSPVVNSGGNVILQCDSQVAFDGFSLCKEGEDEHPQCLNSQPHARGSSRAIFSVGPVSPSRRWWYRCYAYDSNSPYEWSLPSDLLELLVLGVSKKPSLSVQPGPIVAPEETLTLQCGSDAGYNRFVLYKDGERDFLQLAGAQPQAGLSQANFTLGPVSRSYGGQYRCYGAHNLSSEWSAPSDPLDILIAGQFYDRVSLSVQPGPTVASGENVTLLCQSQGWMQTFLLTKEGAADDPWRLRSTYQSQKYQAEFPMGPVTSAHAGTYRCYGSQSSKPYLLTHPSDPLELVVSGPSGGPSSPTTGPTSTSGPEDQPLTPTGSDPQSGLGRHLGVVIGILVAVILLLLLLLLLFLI
Chain of recombinant human LILRA3/ILT6 (Sino Biological 13549-H08H-100) (human) (Q8N6C8 24-439 limits assumed): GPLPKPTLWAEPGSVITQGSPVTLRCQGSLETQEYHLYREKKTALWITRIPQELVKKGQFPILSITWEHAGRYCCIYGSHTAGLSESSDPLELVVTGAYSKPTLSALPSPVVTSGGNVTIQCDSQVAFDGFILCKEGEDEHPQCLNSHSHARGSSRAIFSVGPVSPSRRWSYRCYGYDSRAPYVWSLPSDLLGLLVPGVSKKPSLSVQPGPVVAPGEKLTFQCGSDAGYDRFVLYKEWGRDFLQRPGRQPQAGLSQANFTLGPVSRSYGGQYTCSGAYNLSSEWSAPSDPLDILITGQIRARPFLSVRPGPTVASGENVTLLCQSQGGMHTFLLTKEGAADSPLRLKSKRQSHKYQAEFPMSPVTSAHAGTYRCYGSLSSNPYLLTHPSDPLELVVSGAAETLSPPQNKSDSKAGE
Chain of complement component C1q (Sigma/C1740-1 mg) (human) (P02745 23-245 limits assumed, chain 1 of 3): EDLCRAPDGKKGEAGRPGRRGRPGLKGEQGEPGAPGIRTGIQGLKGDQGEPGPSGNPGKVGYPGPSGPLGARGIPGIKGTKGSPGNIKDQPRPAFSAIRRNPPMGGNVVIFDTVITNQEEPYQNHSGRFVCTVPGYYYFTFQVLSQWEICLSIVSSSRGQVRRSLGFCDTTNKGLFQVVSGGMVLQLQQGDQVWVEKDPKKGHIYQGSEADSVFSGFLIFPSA
Chain of complement component C1q (Sigma/C1740-1 mg) (human) (P02746 28-253 limits assumed, chain 2 of 3, further chain): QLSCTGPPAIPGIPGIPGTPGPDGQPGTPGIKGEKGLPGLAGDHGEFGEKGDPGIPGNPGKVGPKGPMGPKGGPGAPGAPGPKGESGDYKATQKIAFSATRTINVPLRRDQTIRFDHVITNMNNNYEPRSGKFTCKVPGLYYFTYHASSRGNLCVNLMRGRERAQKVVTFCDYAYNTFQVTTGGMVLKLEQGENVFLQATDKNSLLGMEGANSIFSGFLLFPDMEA
Chain of complement component C1q (Sigma/C1740-1 mg) (human) (P02747 29-245 limits assumed, chain 3 of 3, further chain): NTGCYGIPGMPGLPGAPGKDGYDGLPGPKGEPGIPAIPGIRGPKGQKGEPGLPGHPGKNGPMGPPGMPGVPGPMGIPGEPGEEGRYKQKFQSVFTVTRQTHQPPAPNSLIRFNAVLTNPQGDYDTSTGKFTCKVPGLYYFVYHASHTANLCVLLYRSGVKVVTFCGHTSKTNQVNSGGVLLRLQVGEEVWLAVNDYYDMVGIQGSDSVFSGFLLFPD
Chain of recombinant human LILRA1/LIR-6 (Sino Biological 17220-H08H-100) (human) (O75019 17-461 limits assumed): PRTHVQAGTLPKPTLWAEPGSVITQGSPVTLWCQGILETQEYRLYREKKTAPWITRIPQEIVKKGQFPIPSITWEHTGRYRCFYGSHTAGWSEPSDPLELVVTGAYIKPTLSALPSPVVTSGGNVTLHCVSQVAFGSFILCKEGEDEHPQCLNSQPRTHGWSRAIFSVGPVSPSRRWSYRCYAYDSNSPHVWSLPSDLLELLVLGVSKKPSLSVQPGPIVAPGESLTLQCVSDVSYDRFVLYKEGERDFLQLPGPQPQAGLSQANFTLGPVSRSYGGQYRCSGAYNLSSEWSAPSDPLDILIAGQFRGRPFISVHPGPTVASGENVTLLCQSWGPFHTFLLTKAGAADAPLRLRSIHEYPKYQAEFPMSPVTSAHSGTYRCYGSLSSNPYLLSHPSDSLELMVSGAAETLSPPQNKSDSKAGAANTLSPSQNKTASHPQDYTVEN

Substance “IgG4 isotype control (CrownBio/C00045-5) (antibody)” registered an Average AUC in [1] of 0.5.

On to “292305 (R&D Systems, #MAB20171) (antibody)”, for which the results for the Kd in test [2], in [3] and in [4] were 260 nM, 2.4 nM and 100 nM, respectively.

In test [1], “nivolumab (Evidentric GmbH), an anti-PD-1 IgG4 antibody” registered an Average AUC of 0.52.

Take “HP-F1 (Invitrogen, #16-5129-82) (antibody)”: the Kd in test [2] worked out at 7.2 nM; in [3] it was 3.6 nM; in [4], 15 nM. Also, the FcγRIIIa-NFAT luciferase signaling, Average AUC normalized to HP-F1 in test [5] was found to be 100. The substance also came in with a FcγRIIIa-NFAT luciferase signaling, EC50 in test [5] of 32.8 mg/L. The same substance had an IC50 in test [6] of 0.307 mg/L.

For isotype control (VRC01 IgG4) (antibody), the AUC in test [7] was 542; in test [8] it was 570.

Turning to “adalimumab (Myonex), an anti-TNFα IgG1 antibody”, in test [9], the EC50 (read off the curve) is 3 mg/L.

As to “1Q-G2 (Creative, #DCABH-4494) (antibody)”, the Kd came to 5 nM in test [2], 1.7 nM in [3] and 13 nM in test [4].

238145 (Abcam, #EPR22861-6) (antibody): the Kd is 0.81 nM in test [2], 0.24 nM in test [3] and < 0.1 nM in [4].

For VMP55 (Novus, #NBP2-50475PE) (antibody), the results for the Kd in test [2], in test [3] and in test [4] were 32 nM, 0.15 nM and 6 nM, respectively.

For 4F9 (Biorad, #MCA2515F) (antibody), the Kd in [2] worked out at 40 nM; in [3] it was 0.89 nM; in test [4] it was 26 nM.

By Kd is commonly meant the equilibrium constant for the complex coming apart. For orientation: IC50 means the concentration that gives 50% inhibition. Low values mean inhibition by little substance, high ones a need for much substance. The term EC50 (read off the curve) denotes the concentration that produces a half-maximal response. The low end stands for greater potency, the high end for weaker potency.

Source of the values: patent US20250109201A1.
